Assay results: publication PMC11102864 (Nature Structural & Molecular Biology, 2024)

Biological target: Arp3 (subunit of the human Arp2/3 complex, activated conformation at the branch) (human, UniProt P61158 1-418)
Experiment: cryo-EM structure; actin branches reconstituted from Arp2/3, VVCA, SPIN90, actin and capping protein, then 1.9 uM full-length cortactin and 10 uM phalloidin; 20 mM HEPES pH 7.5, 50 mM KCl, 1 mM EGTA, 1 mM MgCl2, 0.2 mM ATP, 1 mM DTT; room temperature; overall resolution about 3.3 Å
Details: both partners purified

binding result: binds
B1: Full-length mouse cortactin (natural protein)
chain: not shown
notes: cortactin, mouse, residues 1-546, UniProt Q60598; only residues 21-79 (NtA) and 80-116 (first central repeat) were built in the model; also called full-length cortactin
